In publication PMC5334639, “Nucleophosmin Interacts with PIN2/TERF1-interacting Telomerase Inhibitor 1 (PinX1) and Attenuates the PinX1 Inhibition on Telomerase Activity” (Scientific Reports, 2017):

T1: PIN2/TERF1-interacting telomerase inhibitor 1 (PinX1), purified wild type (UniProt Q96BK5 1-328)
T1 construct: PinX1, wild type, cloned into pGEX-6p-2; GST removed by PreScission protease; PinX1-C ends at aa328; also called purified PinX1; source: E. coli BL21(DE3)-pLysS, purified (Glutathione Sepharose, gel filtration)
T1 sequence (looked up): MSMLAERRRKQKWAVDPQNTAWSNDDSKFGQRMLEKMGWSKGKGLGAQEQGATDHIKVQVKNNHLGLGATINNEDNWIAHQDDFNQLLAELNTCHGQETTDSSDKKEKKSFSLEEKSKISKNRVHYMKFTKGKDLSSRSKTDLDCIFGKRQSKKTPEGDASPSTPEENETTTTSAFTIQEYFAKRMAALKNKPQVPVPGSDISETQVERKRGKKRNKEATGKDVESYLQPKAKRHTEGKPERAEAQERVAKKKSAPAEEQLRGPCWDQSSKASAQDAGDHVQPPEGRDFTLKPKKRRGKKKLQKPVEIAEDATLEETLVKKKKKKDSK


How the values were obtained:
[1] = biological target: T2, nucleophosmin (NPM), purified wild type (UniProt P06748 1-294); experiment: pull-down; purified NPM (2 mg) immobilised on a 1 ml HiTrap NHS-activated column; 1 mg PinX1 truncation in PBS, 30 min at room temperature; washed with PBS, eluted with PBS with 1.5 M NaCl; SDS-PAGE; details: both partners purified
T2 construct: nucleophosmin, wild type, cloned into pRSETA-HisSumo; HisSumo tag removed by Sumo protease; Truncations end at aa294; also called wild-type NPM; purified NPM; source: E. coli BL21(DE3)-pLysS, purified (HisTrap HP, gel filtration)

[2] = biological target: T1, PIN2/TERF1-interacting telomerase …; experiment: pull-down; purified PinX1 (3 mg) immobilised on a 1 ml HiTrap NHS-activated column; 1 mg NPM or NPM variant in PBS, 30 min at room temperature; washed with PBS, eluted with PBS with 1.5 M NaCl; SDS-PAGE; details: both partners purified

| Binder | binding result [1] | binding result [2] |
| --- | --- | --- |
| PinX1-C (aa254–328), purified (domain or fragment, UniProt Q96BK5 254-328, looked up, PinX1 residues 254-328; source: E. coli BL21(DE3)-pLysS, purified (Glutathione Sepharose, gel filtration)) SAPAEEQLRGPCWDQSSKASAQDAGDHVQPPEGRDFTLKPKKRRGKKKLQKPVEIAEDATLEETLVKKKKKKDSK | binds |  |
| NPM 1–123 (domain or fragment, UniProt P06748 1-123, looked up, source: E. coli BL21(DE3)-pLysS, purified (HisTrap HP, gel filtration)) MEDSMDMDMSPLRPQNYLFGCELKADKDYHFKVDNDENEHQLSLRTVSLGAGAKDELHIVEAEAMNYEGSPIKVTLATLKMSVQPTVSLGGFEITPPVVLRLKCGSGPVHISGQHLVAVEEDA |  | binds |
